This is an account of results in patent US20190064149.

This data set addresses EphA2 having Myc-labeled C-terminal.

B1: MT6-MMP (protein)
chain: YALSGSVWKKRTLTWRVRSFPQSSQLSQETVRVLMSYALMAWGMESGLTFHEVDSPQGQEPDILIDFARAFHQDSYPFDGLGGTLAHAFFPGEHPISGDTHFDDEETWTFGSKDGEGTDLFAVAVHEFGHALGLGHSSAPNSIMRPFYQGPVGDPDKYRLSQDDRDGLQQLYGKAPQTPYDKPTRKPLAPPPQPPASPTHSPSFPIPDRCEGNFDAIANIRGETFFFKGPWFWRLQPSGQLVSPRPARLHRFWEGLPAQVRVVQAAYARHRDGRILLFSGPQFWVFQDRQLEGGARPLTELGLPPGEEVDAVFSWPQNGKTYLVRGRQYWRYDEAAARPDPGYPRDLSLWEGAPPSPDDVTVSNAGDTYFFKGAHYWRFPKNSIKTEPDAPQPMGPNWLDCPAPSSGPRAPRPPKATPVSETCDCQCELNQA
For the protein B1, the “EphA2 processed fragment, western blotting” value is listed as “a processed fragment of EphA2 (small arrow) was detected only in the MT1-MMP-introduced cells”.

B2: MT4-MMP (protein)
chain: QAPAPTKWNKRNLSWRVRTFPRDSPLGHDTVRALMYYALKVWSDIAPLNFHEVAGSAADIQIDFSKADHNDGYPFDGPGGTVAHAFFPGHHHTAGDTHFDDDEAWTFRSSDAHGMDLFAVAVHEFGHAIGLSHVAAAHSIMRPYYQGPVGDPLRYGLPYEDKVRVWQLYGVRESVSPTAQPEEPPLLPEPPDNRSSAPPRKDVPHRCSTHFDAVAQIRGEAFFFKGKYFWRLTRDRHLVSLQPAQMHRFWRGLPLHLDSVDAVYERTSDHKIVFFKGDRYWVFKDNNVEEGYPRPVSDFSLPPGGIDAAFSWAHNDRTYFFKDQLYWRYDDHTRHMDPGYPAQSPLWRGVPSTLDDAMRWSDGASYFFRGQEYWKVLDGELEVAPGYPQSTARDWLVCGDSQADGSVAAGVDAAEGPRAPPGQHDQSRSEDGYEVCSCTS
As for B2, the “EphA2 processed fragment, western blotting” value is on record as “a processed fragment of EphA2 (small arrow) was detected only in the MT1-MMP-introduced cells”.
